Laboratory results from the supplement of paper PMC9170038.

System: MS2 coat protein
Experiment: apparent KD of MS2 coat protein; designed switch direction (-1 OFF switch, 1 ON switch): 1; higher = weaker reporter binding
Outline: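 Apparent KD, taken as the median over clusters for each design, was obtained by curve-fitting normalised cluster fluorescence. Designed RNA switches had been transcribed on Illumina chips by stalled E. coli RNA polymerase and titrated with SNAP-549-labelled MS2 coat protein, doubling from 0.7 or 1.5 nM to 3 µM.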

[1] = Eterna round: R95, input ligand: FMN 200 uM
[2] = Eterna round: R95, input ligand: microRNA oligo, concentration not stated
[3] = Eterna round: R95, input ligand: none
[4] = input ligand: microRNA oligo, concentration not stated

| Sequence | apparent KD of MS2 coat protein [1] | apparent KD of MS2 coat protein [2] | apparent KD of MS2 coat protein [3] | apparent KD of MS2 coat protein (input ligand: FMN 200 uM) | apparent KD of MS2 coat protein [4] | apparent KD of MS2 coat protein (input ligand: none) |
| --- | --- | --- | --- | --- | --- | --- |
| CGUUCAUACUCAGGACGGAGAGUAGAGGAACAUGAGGAUCACCCAUGUAUGAGCUUUUUGCUCGUCAUUAACAGUAG [JR_SHM208a_Sub012] (puzzle: Sensor for hsa-mir-208a) | 0.0618 µM | 0.0434 µM | 0.0812 µM |  |  |  |
| GUAAAACAUGAGGAUCACCCAUGUAAUAAUAUGGGAGGAUAUCUGAUUUAAUUUAAUUUAAGAGAAGGCCUAAAUG [Mat - Same State 1 - Mod of Eli - D58] (puzzle: Same State 1) | 0.0399 µM | 0.318 µM | 0.608 µM |  |  |  |
| CUACUACAUGAGGAUCACCCAUGUUAUAGUGAUGCAGGAUAUGUGUGACCAGAAGAUGAAACAGAAGGGCAAAGAA [JR_SS!_Sub001] (puzzle: Same State 1) | 0.0314 µM | 0.0331 µM | 0.0301 µM |  |  |  |
| GUACAGAUUAUAGGAUAUCACGUCGUUUAGACGUGAGAAGGAUAAUCACACAUGAAUAUUAAUACAUGAGGAUCACCCAUGUAC [SSNG1/17-A3] (Eterna round: R96, puzzle: Same State NG 1) |  |  |  | 0.0184 µM | 0.0175 µM | 0.0185 µM |
| GCUCGACGUAUUGUCUACAUGAGGAUCACCCAUGUAGGUGCGGAGGAUAUUUACGUGUCUCAUGUAGAGAAGGUCGUGUCGAGC [SameState NG3 #95] (Eterna round: R96, puzzle: Same State NG 3) |  |  |  | 0.912 µM | 0.0474 µM | 0.0468 µM |
| GGUCGGACUCACAUGAGGAUCACCCAUGUUCCGGAAACGGGAUAGGAUAUCUGUCCGAAAAGGUCAGAGAAGGGUCUACCGACC [Fiskers NG3ss - 55] (Eterna round: R96, puzzle: Same State NG 3) |  |  |  | 1.05 µM | 0.236 µM | 0.519 µM |
| ACCCAAAGUAUAUGGGAGCAAGCUUUUUAACAUGAGGAUCACCCAUGUACUCGUCUUAUAAGCAGUCGAAAGACUGC [Sensor 100 - 4] (Eterna round: R96, puzzle: Sensor for hsa-mir-208a) |  |  |  | 0.873 µM | 0.0138 µM | 0.941 µM |
| AUUUUUAAUGCAGGAUAUGAUUAACAUGAGGAUCACCCAUGUGGUGUUGUGAGUAAGGAGAGUGAUCAGAAGGGCAUUUUUUCU [JMF's solution 88] (Eterna round: R96, puzzle: Same State NG 2) |  |  |  | 0.34 µM | 0.391 µM | 0.5 µM |
| GUGCUCGUGUGAGGAUAUGUUGCCGGGUCGGCUGCAGAAGGUACUAUUAUACAUGAGGAUCACCCAUGUCGCUUUUCUCCGGUG [salish99_SSNG1_r04_920] (Eterna round: R96, puzzle: Same State NG 1) |  |  |  | 0.0983 µM | 0.0588 µM | 0.0658 µM |
| UAUAAACAUGAGGAUCACCCAUGUAAUAAUAUGGGAGGAUAUCAGAUUUAAUUUAAUUUAUGAGAAGGCCUAAUAU [Mat - Same State 1 - Mod of Eli - D66] (Eterna round: R96, puzzle: Same State 1) |  |  |  |  | 0.427 µM |  |
| GCUACCAAAGAAGCCAACAUGAGGAUCACCCAUGUAUGUUGGUAGGAUAUCGUUUGCAAAGCGAACGAGAAGGGCUAAGGUAGC [Mat - Same State NG 3 - JL Mod - D85] (Eterna round: R96, puzzle: Same State NG 3) |  |  |  | 0.151 µM | 0.0881 µM | 0.101 µM |
| CCGGUUUAUGGAGGAUAUGGAGCCUUAUUGGCUCCAGAAGGCUAAACAUGAGGAUCACCCAUGUUACCGGCGGUCAAUAGACCG [Eli NG1ss - 60] (Eterna round: R96, puzzle: Same State NG 1) |  |  |  | 0.0118 µM | 0.0205 µM | 0.0231 µM |
| GGGAGAGGCGCAGGAUAUGGUGAGGAUUACCCACUAGAAGGGUGCACAUGAGAAUCGAACAUGAGGAUCACCCAUGUUCUGAGC (Eterna round: R96, puzzle: Same State NG 1) |  |  |  | 0.189 µM | 0.187 µM | 0.23 µM |
| UGUUGUAUUACAGGAUAUCUAUUGUUUUUAGUUAGAGAAGGGUAUUCACAUGAGGAUCACCCAUGUAUAUACGAGGAAGUUGUG [JMF's solution 82] (Eterna round: R96, puzzle: Same State NG 1) |  |  |  | 0.0599 µM | 0.0346 µM | 0.0499 µM |
| AGCUAUCGAAAACGAUAGCAAAAGCGUGUACAUGAGGAUCACCCAUGUCAUGUACAAGCUUUUUGCUCGUCUUAAAA [Zipper 23 - 6] (puzzle: Sensor for hsa-mir-208a) | 0.034 µM | 0.0144 µM | 0.0418 µM |  |  |  |
| GUAGGACAUGAGGAUCACCCAUGUGGAGAGGAACGAGGAUAUGUGAGAGGAGUGCAGAGGACAGAAGGCGUGGAGG [JR_SS1_Sub027] (puzzle: Same State 1) | 0.0426 µM | 0.0311 µM | 0.0621 µM |  |  |  |

| Sequence | apparent KD of MS2 coat protein [1] | apparent KD of MS2 coat protein [2] | apparent KD of MS2 coat protein [3] | apparent KD of MS2 coat protein (input ligand: FMN 200 uM) | apparent KD of MS2 coat protein [4] | apparent KD of MS2 coat protein (input ligand: none) |
| --- | --- | --- | --- | --- | --- | --- |
| GCAGGACAUGAGGAUCACCCAUGUCUCAAAUAUUGAGGAUAUGGACACGGUAUAUCCGAACCAGAAGGCAACCUGC [SS1 Teenbexe 20] (Eterna round: R96, puzzle: Same State 1) |  |  |  | 0.0389 µM | 0.0315 µM | 0.0437 µM |
| AGUCCAGCAUGAGCUGGACAAAAGCAUGUACAUGAGGAUCACCCAUGUUCAUGUACAAGCUUUUUGCUCGUCUUAAG [Mat - hsa-mir-208a - Mod of JL - 63] (puzzle: Sensor for hsa-mir-208a) | 0.568 µM | 0.018 µM | 0.802 µM |  |  |  |
| AUAAAACAUGAGGAUCACCCAUGUCUCCAAAGUCGAGGAUAUGGGCAAAUAAUAUAAGAACCAGAAGGCGAAUAAU [SS1 Teenbexe 2] (puzzle: Same State 1) | 0.177 µM | 0.179 µM | 0.374 µM |  |  |  |
| GUUAAACAUGAGGAUCACCCAUGUAAUCAUAUGGGAGGAUAUGGGAAUUAAUUAAUUAAACCAGAAGGCCUAAUUG [Mat - Same State 1 - D83] (puzzle: Same State 1) | 0.0196 µM | 0.0874 µM | 0.0923 µM |  |  |  |
| GAUUAACAUGAGGAUCACCCAUGUCGUUAAAUGGGAGGAUAUACGUGGACCGUAGUCCGCGUAGAAGGCCUAAUUG [Mat - Same State 1 - Mod of JL - D22] (puzzle: Same State 1) |  | 0.101 µM |  |  |  |  |
| UAUGACUUACAAGGAUAUUAAUAACAUGAGGAUCACCCAUGUGGCUGUGAGAGUUAGAUAAGCUAUAAGAAGGUGUGUGUGUUU [JR_SSNG2_Sub094] (Eterna round: R96, puzzle: Same State NG 2) |  |  |  | 0.0627 µM | 0.133 µM | 0.173 µM |
| UUUAGUUGCGGGCAGGAUAUGUAUUAAAAUACAUGAGGAUCACCCAUGUGCGGGUGUAACACCCGACAGAAGGGCCAAUCGCGAC [Laonerce - 13] (puzzle: Same State 2) |  | 0.22 µM |  |  |  |  |
| AAAAAACAUGAGGAUCACCCAUGUGAAAAUAUGGGAGGAUAUACAAACACGAAAGUGAAAGUAGAAGGCCUAAAAA [SS! MT 16] (Eterna round: R96, puzzle: Same State 1) |  |  |  | 0.0172 µM | 0.0954 µM | 0.127 µM |
| UUAAUUUACUGAGGAUAUCGUGUCGACUGAGGUGACAUGAGGAUCACCCAUGUGAGAAGAGGUAUCGAGAAGGCAGUAUUCAUA [JR_SSNG2_Sub021] (Eterna round: R96, puzzle: Same State NG 2) |  |  |  | 0.317 µM | 0.545 µM | 1.12 µM |
| GAAUAGUUGAGAGGAUAUCUAUGAUAAAAGGAUAGAGAAGGUUUUAACAUGAGGAUCACCCAUGUAGGACUAUAUAUGUGAAUA [Parity 82 - Jieux - Same State NG 1] (Eterna round: R96, puzzle: Same State NG 1) |  |  |  | 0.0125 µM | 0.0119 µM | 0.0169 µM |
| GUGGUCAGACAUGAGGAUCACCCAUGUGGAAUAAAUAAGGUCAAGGAUAUUCAAUAUAGGAUAUAGAAGAAGGUGAGGUUGGUG (Eterna round: R96, puzzle: Same State NG 3) |  |  |  |  | 0.108 µM |  |
| CGGCUUGUACAUGAGGAUCACCCAUGUAUGUACAAGUUUUUGCUCGUCUUAUAAAUACGAUCUACCGAAAGGUAGAU [BIOPHYS241_ElaineNg_1] (puzzle: Sensor for hsa-mir-208a version 2) | 0.276 µM | 0.0187 µM | 0.236 µM |  |  |  |
| AGCUAUUAAUCAGGAUAUAGGGACAUGAGGAUCACCCAUGUAUACAUGAUGAAAUGUGAUCACGUCUAGAAGGGAUUACUAACA [SameState NG2 #40] (Eterna round: R96, puzzle: Same State NG 2) |  |  |  | 0.236 µM | 0.299 µM | 0.134 µM |
| AUUUAACAAGCUUUUUGCUCGUCUUAUAAACAUGAGGAUCACCCAUGUAAUAGCGUGAGAGUAAAUAUUUAAAUAAU [JMF 93] (puzzle: Sensor for hsa-mir-208a) | 0.0145 µM | 0.0483 µM | 0.0111 µM |  |  |  |
| GCCAACUCAUGAGGAUAUGGCACCUUAUUGGUGCCAGAAGGCAUGUCAAUUGACAUGAGGAUCACCCAUGUAUUAUAGUUGGCA [Fiskers NG1ss - 22] (Eterna round: R96, puzzle: Same State NG 1) |  |  |  | 0.0625 µM | 0.267 µM | 0.489 µM |
